Results reported in publication PMC8233713, “Direct Interaction of Polar Scaffolding Protein Wag31 with Nucleoid-Associated Protein Rv3852 Regulates Its Polar Localization” (Cells, 2021).

T1: Wag31 (recombinant, from Wag31-pet28a) (Mycobacterium tuberculosis, UniProt P9WMU1 1-260)
T1 sequence: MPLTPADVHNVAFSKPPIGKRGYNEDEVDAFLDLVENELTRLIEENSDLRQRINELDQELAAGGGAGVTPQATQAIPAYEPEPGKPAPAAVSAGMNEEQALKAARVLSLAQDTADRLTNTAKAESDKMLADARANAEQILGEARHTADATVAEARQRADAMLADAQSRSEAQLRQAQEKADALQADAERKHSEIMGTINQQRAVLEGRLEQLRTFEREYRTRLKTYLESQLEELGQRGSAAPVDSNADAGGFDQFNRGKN

B1: 6X His-tagged Rv3852 protein (natural protein)
chain: MPDPQDRPDSEPSDASTPPAKKLPAKKAAKKAPARKTPAKKAPAKKTPAKGAKSAPPKPAEAPVSLQQRIETNGQLAAAAKDAAAQAKSTVEGANDALARNASVPAPSHSPVPLIVAVTLSLLALLLIRQLRRR
notes: also called hexa-histidine tagged Rv3852
B2: Rv3852-MBP (natural protein)
chain: B1 chain

What was measured:
[1] = biological target: T1, Wag31 (recombinant, from Wag31-pet28a); assay: co-IP; conditions: both partners purified
[2] = biological target: T1, Wag31 (recombinant, from Wag31-pet28a); assay: pull-down; conditions: both partners purified

Row | Binder | binding result [1] | binding result [2]
1 | B1 | binds | –
2 | B2 | – | binds
